From patent publication US20190185537A1 (AstraZeneca / MedImmune, published 2019)
Numbered stars: 1 amine (or outer) side, 2 acyl side, 3 side chain; on linkers, the order of the positions; unused ones are H or OH. Side chains are listed from the residue outwards. Ends that are not written are not given here. * marks the point of attachment. γGlu = O=C(O)[C@H](CCC(=O)[*:2])N[*:1]; Palmitoyl = CCCCCCCCCCCCCCCC(=O)*; Ahx = NCCCCCC(=O)O; βAla = NCCC(=O)O

T1: human glucose-dependent insulinotropic peptide (gastric inhibitory polypeptide) receptor (human) (UniProt P48546)
T1 sequence (looked up): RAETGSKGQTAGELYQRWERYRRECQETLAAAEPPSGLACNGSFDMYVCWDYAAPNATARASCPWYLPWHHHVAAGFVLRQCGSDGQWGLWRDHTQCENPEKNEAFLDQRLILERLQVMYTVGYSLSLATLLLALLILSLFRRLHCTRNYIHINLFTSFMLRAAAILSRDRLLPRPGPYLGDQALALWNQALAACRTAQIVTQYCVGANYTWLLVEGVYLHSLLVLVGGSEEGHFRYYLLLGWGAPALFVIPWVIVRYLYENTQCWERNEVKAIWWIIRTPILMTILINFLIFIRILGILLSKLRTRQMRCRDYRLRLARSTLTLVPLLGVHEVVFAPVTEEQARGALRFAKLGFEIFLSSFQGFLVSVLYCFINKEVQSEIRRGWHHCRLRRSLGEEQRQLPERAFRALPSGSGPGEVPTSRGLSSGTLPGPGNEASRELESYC

B1: g684 (peptide)
peptide: HGQGTFTSDYSEYLDSK([Ahx-Palmitoyl])RARDFVAWLERGG-NH2
modifications: N-terminus assumed
SMILES: CCCCCCCCCCCCCCCC(=O)NCCCCCC(=O)NCCCC[C@H](NC(=O)[C@H](CO)NC(=O)[C@H](CC(=O)O)NC(=O)[C@H](CC(C)C)NC(=O)[C@H](Cc1ccc(O)cc1)NC(=O)[C@H](CCC(=O)O)NC(=O)[C@H](CO)NC(=O)[C@H](Cc1ccc(O)cc1)NC(=O)[C@H](CC(=O)O)NC(=O)[C@H](CO)NC(=O)[C@@H](NC(=O)[C@H](Cc1ccccc1)NC(=O)[C@@H](NC(=O)CNC(=O)[C@H](CCC(N)=O)NC(=O)CNC(=O)[C@@H](N)Cc1c[nH]cn1)[C@@H](C)O)[C@@H](C)O)C(=O)N[C@@H](CCCNC(=N)N)C(=O)N[C@@H](C)C(=O)N[C@@H](CCCNC(=N)N)C(=O)N[C@@H](CC(=O)O)C(=O)N[C@@H](Cc1ccccc1)C(=O)N[C@H](C(=O)N[C@@H](C)C(=O)N[C@@H](Cc1c[nH]c2ccccc12)C(=O)N[C@@H](CC(C)C)C(=O)N[C@@H](CCC(=O)O)C(=O)N[C@@H](CCCNC(=N)N)C(=O)NCC(=O)NCC(N)=O)C(C)C
B2: g721 (peptide)
peptide: HGQGTFTSDYSEYLDSK([γGlu-Palmitoyl])RARDFVAWLERGG-NH2
modifications: N-terminus assumed
SMILES: CCCCCCCCCCCCCCCC(=O)N[C@@H](CCC(=O)NCCCC[C@H](NC(=O)[C@H](CO)NC(=O)[C@H](CC(=O)O)NC(=O)[C@H](CC(C)C)NC(=O)[C@H](Cc1ccc(O)cc1)NC(=O)[C@H](CCC(=O)O)NC(=O)[C@H](CO)NC(=O)[C@H](Cc1ccc(O)cc1)NC(=O)[C@H](CC(=O)O)NC(=O)[C@H](CO)NC(=O)[C@@H](NC(=O)[C@H](Cc1ccccc1)NC(=O)[C@@H](NC(=O)CNC(=O)[C@H](CCC(N)=O)NC(=O)CNC(=O)[C@@H](N)Cc1c[nH]cn1)[C@@H](C)O)[C@@H](C)O)C(=O)N[C@@H](CCCNC(=N)N)C(=O)N[C@@H](C)C(=O)N[C@@H](CCCNC(=N)N)C(=O)N[C@@H](CC(=O)O)C(=O)N[C@@H](Cc1ccccc1)C(=O)N[C@H](C(=O)N[C@@H](C)C(=O)N[C@@H](Cc1c[nH]c2ccccc12)C(=O)N[C@@H](CC(C)C)C(=O)N[C@@H](CCC(=O)O)C(=O)N[C@@H](CCCNC(=N)N)C(=O)NCC(=O)NCC(N)=O)C(C)C)C(=O)O
B3: g588 (peptide)
peptide: HGQGTFTSDYSKYLDSK([γGlu-Palmitoyl])RAQDFVQWLERGG-NH2
modifications: N-terminus assumed
SMILES: CCCCCCCCCCCCCCCC(=O)N[C@@H](CCC(=O)NCCCC[C@H](NC(=O)[C@H](CO)NC(=O)[C@H](CC(=O)O)NC(=O)[C@H](CC(C)C)NC(=O)[C@H](Cc1ccc(O)cc1)NC(=O)[C@H](CCCCN)NC(=O)[C@H](CO)NC(=O)[C@H](Cc1ccc(O)cc1)NC(=O)[C@H](CC(=O)O)NC(=O)[C@H](CO)NC(=O)[C@@H](NC(=O)[C@H](Cc1ccccc1)NC(=O)[C@@H](NC(=O)CNC(=O)[C@H](CCC(N)=O)NC(=O)CNC(=O)[C@@H](N)Cc1c[nH]cn1)[C@@H](C)O)[C@@H](C)O)C(=O)N[C@@H](CCCNC(=N)N)C(=O)N[C@@H](C)C(=O)N[C@@H](CCC(N)=O)C(=O)N[C@@H](CC(=O)O)C(=O)N[C@@H](Cc1ccccc1)C(=O)N[C@H](C(=O)N[C@@H](CCC(N)=O)C(=O)N[C@@H](Cc1c[nH]c2ccccc12)C(=O)N[C@@H](CC(C)C)C(=O)N[C@@H](CCC(=O)O)C(=O)N[C@@H](CCCNC(=N)N)C(=O)NCC(=O)NCC(N)=O)C(C)C)C(=O)O
B4: g783 (peptide)
peptide: HSQGTFTSDYSEYLDSK([βAla-Palmitoyl])RARDFVAWLEAGG-NH2
modifications: N-terminus assumed
SMILES: CCCCCCCCCCCCCCCC(=O)NCCC(=O)NCCCC[C@H](NC(=O)[C@H](CO)NC(=O)[C@H](CC(=O)O)NC(=O)[C@H](CC(C)C)NC(=O)[C@H](Cc1ccc(O)cc1)NC(=O)[C@H](CCC(=O)O)NC(=O)[C@H](CO)NC(=O)[C@H](Cc1ccc(O)cc1)NC(=O)[C@H](CC(=O)O)NC(=O)[C@H](CO)NC(=O)[C@@H](NC(=O)[C@H](Cc1ccccc1)NC(=O)[C@@H](NC(=O)CNC(=O)[C@H](CCC(N)=O)NC(=O)[C@H](CO)NC(=O)[C@@H](N)Cc1c[nH]cn1)[C@@H](C)O)[C@@H](C)O)C(=O)N[C@@H](CCCNC(=N)N)C(=O)N[C@@H](C)C(=O)N[C@@H](CCCNC(=N)N)C(=O)N[C@@H](CC(=O)O)C(=O)N[C@@H](Cc1ccccc1)C(=O)N[C@H](C(=O)N[C@@H](C)C(=O)N[C@@H](Cc1c[nH]c2ccccc12)C(=O)N[C@@H](CC(C)C)C(=O)N[C@@H](CCC(=O)O)C(=O)N[C@@H](C)C(=O)NCC(=O)NCC(N)=O)C(C)C
B5: g838 (peptide)
peptide: HSQGTFTSDYSEYLDSK([Ahx-Palmitoyl])RARDFVAWLEAGG-NH2
modifications: N-terminus assumed
SMILES: CCCCCCCCCCCCCCCC(=O)NCCCCCC(=O)NCCCC[C@H](NC(=O)[C@H](CO)NC(=O)[C@H](CC(=O)O)NC(=O)[C@H](CC(C)C)NC(=O)[C@H](Cc1ccc(O)cc1)NC(=O)[C@H](CCC(=O)O)NC(=O)[C@H](CO)NC(=O)[C@H](Cc1ccc(O)cc1)NC(=O)[C@H](CC(=O)O)NC(=O)[C@H](CO)NC(=O)[C@@H](NC(=O)[C@H](Cc1ccccc1)NC(=O)[C@@H](NC(=O)CNC(=O)[C@H](CCC(N)=O)NC(=O)[C@H](CO)NC(=O)[C@@H](N)Cc1c[nH]cn1)[C@@H](C)O)[C@@H](C)O)C(=O)N[C@@H](CCCNC(=N)N)C(=O)N[C@@H](C)C(=O)N[C@@H](CCCNC(=N)N)C(=O)N[C@@H](CC(=O)O)C(=O)N[C@@H](Cc1ccccc1)C(=O)N[C@H](C(=O)N[C@@H](C)C(=O)N[C@@H](Cc1c[nH]c2ccccc12)C(=O)N[C@@H](CC(C)C)C(=O)N[C@@H](CCC(=O)O)C(=O)N[C@@H](C)C(=O)NCC(=O)NCC(N)=O)C(C)C
B6: g614 (peptide)
peptide: HSQGTFTSDYSEYLDSK([Ahx-Palmitoyl])RAQDFVQWLERGG-NH2
modifications: N-terminus assumed
SMILES: CCCCCCCCCCCCCCCC(=O)NCCCCCC(=O)NCCCC[C@H](NC(=O)[C@H](CO)NC(=O)[C@H](CC(=O)O)NC(=O)[C@H](CC(C)C)NC(=O)[C@H](Cc1ccc(O)cc1)NC(=O)[C@H](CCC(=O)O)NC(=O)[C@H](CO)NC(=O)[C@H](Cc1ccc(O)cc1)NC(=O)[C@H](CC(=O)O)NC(=O)[C@H](CO)NC(=O)[C@@H](NC(=O)[C@H](Cc1ccccc1)NC(=O)[C@@H](NC(=O)CNC(=O)[C@H](CCC(N)=O)NC(=O)[C@H](CO)NC(=O)[C@@H](N)Cc1c[nH]cn1)[C@@H](C)O)[C@@H](C)O)C(=O)N[C@@H](CCCNC(=N)N)C(=O)N[C@@H](C)C(=O)N[C@@H](CCC(N)=O)C(=O)N[C@@H](CC(=O)O)C(=O)N[C@@H](Cc1ccccc1)C(=O)N[C@H](C(=O)N[C@@H](CCC(N)=O)C(=O)N[C@@H](Cc1c[nH]c2ccccc12)C(=O)N[C@@H](CC(C)C)C(=O)N[C@@H](CCC(=O)O)C(=O)N[C@@H](CCCNC(=N)N)C(=O)NCC(=O)NCC(N)=O)C(C)C
B7: g819 (peptide)
peptide: HSQGTFTSDYSKYLDSK([βAla-Palmitoyl])RARDFVAWLEAGG-NH2
modifications: N-terminus assumed
SMILES: CCCCCCCCCCCCCCCC(=O)NCCC(=O)NCCCC[C@H](NC(=O)[C@H](CO)NC(=O)[C@H](CC(=O)O)NC(=O)[C@H](CC(C)C)NC(=O)[C@H](Cc1ccc(O)cc1)NC(=O)[C@H](CCCCN)NC(=O)[C@H](CO)NC(=O)[C@H](Cc1ccc(O)cc1)NC(=O)[C@H](CC(=O)O)NC(=O)[C@H](CO)NC(=O)[C@@H](NC(=O)[C@H](Cc1ccccc1)NC(=O)[C@@H](NC(=O)CNC(=O)[C@H](CCC(N)=O)NC(=O)[C@H](CO)NC(=O)[C@@H](N)Cc1c[nH]cn1)[C@@H](C)O)[C@@H](C)O)C(=O)N[C@@H](CCCNC(=N)N)C(=O)N[C@@H](C)C(=O)N[C@@H](CCCNC(=N)N)C(=O)N[C@@H](CC(=O)O)C(=O)N[C@@H](Cc1ccccc1)C(=O)N[C@H](C(=O)N[C@@H](C)C(=O)N[C@@H](Cc1c[nH]c2ccccc12)C(=O)N[C@@H](CC(C)C)C(=O)N[C@@H](CCC(=O)O)C(=O)N[C@@H](C)C(=O)NCC(=O)NCC(N)=O)C(C)C

The binders below were run against human glucagon receptor (human, UniProt P47871 26-477) (assay: cell-based or functional assay).
Sequence of human glucagon receptor (P47871 26-477): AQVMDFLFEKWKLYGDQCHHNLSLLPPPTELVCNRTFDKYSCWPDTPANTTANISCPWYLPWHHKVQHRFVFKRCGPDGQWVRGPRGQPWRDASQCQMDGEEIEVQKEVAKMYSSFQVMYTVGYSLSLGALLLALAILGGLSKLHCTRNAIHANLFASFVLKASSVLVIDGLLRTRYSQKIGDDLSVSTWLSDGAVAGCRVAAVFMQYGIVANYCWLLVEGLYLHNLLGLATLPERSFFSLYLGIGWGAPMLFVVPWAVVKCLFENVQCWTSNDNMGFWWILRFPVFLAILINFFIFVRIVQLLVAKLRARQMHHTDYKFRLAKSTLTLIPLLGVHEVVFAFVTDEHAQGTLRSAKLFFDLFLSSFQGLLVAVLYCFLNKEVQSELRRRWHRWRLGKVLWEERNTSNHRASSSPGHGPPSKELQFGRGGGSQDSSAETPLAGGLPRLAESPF
Work on B1 yielded a cAMP EC50 (assay 1) of 0.164 nM. In the case of B2, the cAMP EC50 (assay 1) is reported as 3.23 nM. B3 was tested, and the cAMP EC50 (assay 1) was 0.0723 nM. HSQGTFTSDYSEYLDSK([Ahx-Palmitoyl])RARDFVEWLENT-NH2 (not fully specified) [g825] showed a cAMP EC50 (assay 1) of 0.00367 nM. With B4 the cAMP EC50 (assay 1) was 0.0911 nM. B5 was tested, and the cAMP EC50 (assay 1) was 0.00568 nM. B6 was tested, and the cAMP EC50 (assay 1) was 0.00365 nM. Work on B7 yielded a cAMP EC50 (assay 1) of 0.00234 nM.

The binders below were run against T1, human glucose-dependent insulinotropic peptide (gastric inhibitory polypeptide) receptor (human) (assay: cell-based or functional assay).
In the case of B1, the cAMP EC50 (assay 1) is reported as 146 nM. In the case of B2, the cAMP EC50 (assay 1) is reported as 979 nM. B3 gave a cAMP EC50 (assay 1) of 98 nM. For HSQGTFTSDYSEYLDSK([Ahx-Palmitoyl])RARDFVEWLENT-NH2 (not fully specified) [g825], the cAMP EC50 (assay 1) was 86.7 nM. For B4, the cAMP EC50 (assay 1) was 846 nM. With B5 the cAMP EC50 (assay 1) was 84.3 nM. B6 was tested, and the cAMP EC50 (assay 1) was 99.3 nM. B7 was tested, and the cAMP EC50 (assay 1) was 103 nM.

The binders below were run against human GLP-1 receptor (human, UniProt P43220 24-463) (assay: cell-based or functional assay).
Sequence of human GLP-1 receptor (P43220 24-463): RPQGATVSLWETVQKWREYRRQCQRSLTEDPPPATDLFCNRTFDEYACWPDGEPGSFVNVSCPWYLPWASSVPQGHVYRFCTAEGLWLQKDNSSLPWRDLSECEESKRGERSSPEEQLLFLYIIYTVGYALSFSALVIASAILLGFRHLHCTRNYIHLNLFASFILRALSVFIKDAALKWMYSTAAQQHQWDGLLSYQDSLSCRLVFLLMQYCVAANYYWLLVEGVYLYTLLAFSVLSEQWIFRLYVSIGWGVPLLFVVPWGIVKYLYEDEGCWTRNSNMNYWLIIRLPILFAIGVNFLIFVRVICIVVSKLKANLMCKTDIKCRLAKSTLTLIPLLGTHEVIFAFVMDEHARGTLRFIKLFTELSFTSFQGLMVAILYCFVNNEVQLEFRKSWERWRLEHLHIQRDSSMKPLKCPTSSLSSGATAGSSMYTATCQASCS
Binder B1 has a cAMP EC50 (assay 1) of 0.0151 nM. B2 showed a cAMP EC50 (assay 1) of 0.411 nM. B3 showed a cAMP EC50 (assay 1) of 0.11 nM. HSQGTFTSDYSEYLDSK([Ahx-Palmitoyl])RARDFVEWLENT-NH2 (not fully specified) [g825] showed a cAMP EC50 (assay 1) of 0.0191 nM. B4 showed a cAMP EC50 (assay 1) of 0.0424 nM. In the case of B5, the cAMP EC50 (assay 1) is reported as 0.0237 nM. For B6, the cAMP EC50 (assay 1) was 0.00931 nM. B7 was tested, and the cAMP EC50 (assay 1) was 0.018 nM.
